B1: R1463 (VHH)
VHH: QVQLVESGGGVVQPGGSLRLSCTCSRCTFNWDGMGWFRQAPGKGLEFVATISWSGQEPAYADSVKGRFTISRDNSKNTLYLQMTSLRAEDTAVYYCAAAQYTGASYSILRDQVGYDYWGQGTLVTVSS
notes: also called RX017 VHH-His标签; 对照
B2: R1464 (VHH, not shown: small tags and cut ends)
chain (part 1 of 3): HHHHHHQVQLVESGGGVVQPGGSLRLSCTCSRCTFNWDGMGWFRQAPGKGLEFVATISWSGQEPAYADSVKGRFTISRDNSKNTLYLQMTSLRAEDTAVYYCAAAQYTGASYSILRDQVGYDYWGQGTLVTVSS
chain (part 2 of 3): B1 VHH
chain (part 3 of 3): B1 VHH
notes: also called 人源化多价结合蛋白 R1464; His标签-VHH-Linker-VHH-Linker-VHH
B3: R1475 (VHH, not shown: small tags and cut ends)
VHH 1: B1 VHH
VHH 2: B1 VHH
notes: also called 人源化多价结合蛋白 R1475; VHH-Linker-VHH-His标签

Biological target: 野生株SARS-COV-2 RBD蛋白(Ag27) (SARS-COV-2 野生株, UniProt P0DTC2 319-541)

Binder | IC50 [nM]
B1 | 0.0359
B2 | 0.0272
B3 | 0.0206

From patent CN115057938A (dated 2022)
